From patent US20070134813A1

T1: C-reactive protein (human) (UniProt P02741)
T1 sequence (looked up): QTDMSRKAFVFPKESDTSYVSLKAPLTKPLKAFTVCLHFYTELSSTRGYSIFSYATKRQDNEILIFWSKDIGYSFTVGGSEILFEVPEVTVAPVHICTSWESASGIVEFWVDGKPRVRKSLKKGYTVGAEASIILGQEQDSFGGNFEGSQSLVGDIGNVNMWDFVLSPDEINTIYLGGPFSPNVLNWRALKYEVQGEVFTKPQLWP


Assays:
[1] = molecular target: T1, C-reactive protein (human); test: SPR, Fn 1 mg/mL in the presence of 50 uM 9-mer injected over antibody-captured CRP
[2] = molecular target: T1, C-reactive protein (human); test: SPR, Fn 1 mg/mL in the presence of 50 uM 10-mer injected over antibody-captured CRP
[3] = molecular target: T1, C-reactive protein (human); test: SPR, Fn 1 mg/mL in the presence of 50 uM 19-mer injected over antibody-captured CRP
[4] = molecular target: T1, C-reactive protein (human); test: SPR (Biacore X), Fn 1 mg/mL without inhibitor injected over CRP captured on immobilized anti-CRP antibody, 25 C
[5] = molecular target: T1, C-reactive protein (human); test: SPR, inhibition of Fn (1 mg/mL) binding to antibody-captured CRP at 50 uM peptide

| Molecule | SPR Response (RU) [1] | SPR Response (RU) [2] | SPR Response (RU) [3] | SPR Response (RU) [4] | % Inhibition [5] |
| --- | --- | --- | --- | --- | --- |
| fibronectin (from UniProt P02751 32-2477) | 119 RU | 76 RU | 76 RU | 118 RU | – |
| PRCGNPDVANYNFFPRKPK [19-mer (SEQ ID NO.: 11)] | – | – | – | – | 35.6% |
| NYNFFPRKPK [10-mer (SEQ ID NO.: 12)] | – | – | – | – | 35.6% |
| PRCGNPDVA [9-mer (SEQ ID NO.: 16)] | – | – | – | – | 0% |
